From the supplement of paper PMC10201428
± gives the standard deviation of the averaged measurements.

Experiments:
[1] = test system: VchCAST RNA-guided transposition machinery (E. coli BL21(DE3) host, lacZ target); experiment: relative integration efficiency (T-RL orientation) vs wild-type transposon end (log2 (normalized fold change)); transposon end mutated: right end (5 bp flank + 75 bp right end); higher = more efficient transposition
In short: (§1)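 Pools of 1549 left-end or 1849 right-end barcoded transposon variants were cloned into a pUC57 mini-transposon donor and co-transformed into E. coli BL21(DE3) with a T7-driven effector plasmid carrying a CRISPR array, tniQ-cas8-cas7-cas6 and tnsA-tnsB-tnsC. Plating used 0.1 mM IPTG at 37°C for 18 h, and input plasmids and genomic integration junctions were PCR-amplified for Illumina sequencing, with two biological output replicates and four reference barcodes. Relative integration efficiency is the log-transformed fold change of output over input barcode abundance, normalised to the reference barcodes.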

[2] = test system: VchCAST RNA-guided transposition machinery (E. coli BL21(DE3) host, lacZ target); experiment: relative integration efficiency (T-LR orientation) vs wild-type transposon end (log2 (normalized fold change)); transposon end mutated: right end (5 bp flank + 75 bp right end); higher = more efficient transposition
In short: as §1

## ACATTTGTTCATACAACCATAAAATGATAATTACACCCATAAATGGATAATTATCACCCCCAATTTAACTATAACGCTCTGATCATAGTCAGACCAACATTGCTACGACCCGTATTCGCACCGACAC
[1]
  relative integration efficiency (log2): -1 ± 0.35
[2]
  relative integration efficiency (log2): 0.23 ± 0.071

## ACATTTGTTCATACAACCATAAAATGATAATTACACCCATAAATGGATCATTATCACACCCAATTTAACTATAACGCTCTGATCATAGTCAGACCAACATTGCTACGACCCGTATTCGCACCGACAC
[1]
  relative integration efficiency (log2): -1.79 ± 0.18
[2]
  relative integration efficiency (log2): -0.503 ± 0.054

## ACATTTGTTCATACAACCATAAAATGATAATTACACCCATAAATGGATCATTATCACCCCCAATTTAACTATAACGCTCTGATCATAGTCAGACCAACATTGCTACGACCCGTATTCGCACCGACAC
[1]
  relative integration efficiency (log2): -1.84 ± 0.28
[2]
  relative integration efficiency (log2): -0.469 ± 0.18

## ACATTTGTTCATACAACCATAAAATGATAATTACACCCATAAATTCATAATTATCACACCCAATTTAACTATAACGCTCTGATCATAGTCAGACCAACATTGCTACGACCCGTATTCGCACCGACAC
[1]
  relative integration efficiency (log2): -2.52 ± 0.32
[2]
  relative integration efficiency (log2): -0.697 ± 0.075

## ACATTTGTTCATACAACCATAAAATGATAATTACACCCATAAATTCATAATTATCACCCCCAATTTAACTATAACGCTCTGATCATAGTCAGACCAACATTGCTACGACCCGTATTCGCACCGACAC
[1]
  relative integration efficiency (log2): -1.62 ± 0.43
[2]
  relative integration efficiency (log2): -0.0689 ± 0.64

## ACATTTGTTCATACAACCATAAAATGATAATTACACCCATAAATTCATCATTATCACACCCAATTTAACTATAACGCTCTGATCATAGTCAGACCAACATTGCTACGACCCGTATTCGCACCGACAC
[1]
  relative integration efficiency (log2): -2.35 ± 0.22
[2]
  relative integration efficiency (log2): -0.334 ± 0.16

## ACATTTGTTCATACAACCATAAAATGATAATTACACCCATAAATTCATCATTATCACCCCCAATTTAACTATAACGCTCTGATCATAGTCAGACCAACATTGCTACGACCCGTATTCGCACCGACAC
[1]
  relative integration efficiency (log2): -1.97 ± 0.36
[2]
  relative integration efficiency (log2): 0.174 ± 0.27

## ACATTTGTTCATACAACCATAAAATGATAATTACACCCATAAATTGATAATTATCACCCCCAATTTAACTATAACGCTCTGATCATAGTCAGACCAACATTGCTACGACCCGTATTCGCACCGACAC
[1]
  relative integration efficiency (log2): -0.912 ± 0.46
[2]
  relative integration efficiency (log2): 0.97 ± 0.12

## ACATTTGTTCATACAACCATAAAATGATAATTACACCCATAAATTGATCATTATCACACCCAATTTAACTATAACGCTCTGATCATAGTCAGACCAACATTGCTACGACCCGTATTCGCACCGACAC
[1]
  relative integration efficiency (log2): -1.45 ± 0.36
[2]
  relative integration efficiency (log2): 0.604 ± 0.17

## ACATTTGTTCATACAACCATAAAATGATAATTACACCCATAAATTGATCATTATCACCCCCAATTTAACTATAACGCTCTGATCATAGTCAGACCAACATTGCTACGACCCGTATTCGCACCGACAC
[1]
  relative integration efficiency (log2): -1.59 ± 0.39
[2]
  relative integration efficiency (log2): 0.514 ± 0.2

## ACATTTGTTCATACAACCATAAAATGATAATTACCACCCATAAATTGATAATTATCACACCCATTTAACTATAACGCTCTGATCATAGTCAGACCAACATTGCTACGACCCGTATTCGCACCGACAC
[1]
  relative integration efficiency (log2): -1.38 ± 0.23
[2]
  relative integration efficiency (log2): -0.231 ± 0.23

## ACATTTGTTCATACAACCATAAAATGATAATTACCACCCATACATTGATAATTATCACACCCATTTAACTATAACGCTCTGATCATAGTCAGACCAACATTGCTACGACCCGTATTCGCACCGACAC
[1]
  relative integration efficiency (log2): -3.31 ± 0.39
[2]
  relative integration efficiency (log2): -2.29 ± 0.1

## ACATTTGTTCATACAACCATAAAATGATAATTACCACCCCTAAATTGATAATTATCACACCCATTTAACTATAACGCTCTGATCATAGTCAGACCAACATTGCTACGACCCGTATTCGCACCGACAC
[1]
  relative integration efficiency (log2): -4.21 ± 0.08
[2]
  relative integration efficiency (log2): -2.87 ± 0.85

## ACATTTGTTCATACAACCATAAAATGATAATTACCACCCCTACATTGATAATTATCACACCCATTTAACTATAACGCTCTGATCATAGTCAGACCAACATTGCTACGACCCGTATTCGCACCGACAC
[1]
  relative integration efficiency (log2): -4.944 ± 0.019
[2]
  relative integration efficiency (log2): -3.25 ± 0.45

## ACATTTGTTCATACAACCATAAAATGATAATTCACCCATAAATTGATAATTATCACACCCCAATTTAACTATAACGCTCTGATCATAGTCAGACCAACATTGCTACGACCCGTATTCGCACCGACAC
[1]
  relative integration efficiency (log2): -2.26 ± 0.18
[2]
  relative integration efficiency (log2): -0.502 ± 0.27

## ACATTTGTTCATACAACCATAAAATGATAATTCACCCATCAATTGATAATTATCACACCCCAATTTAACTATAACGCTCTGATCATAGTCAGACCAACATTGCTACGACCCGTATTCGCACCGACAC
[1]
  relative integration efficiency (log2): -4.48 ± 0.28
[2]
  relative integration efficiency (log2): -2.51 ± 0.15

## ACATTTGTTCATACAACCCTAAAATGATAATTACACCCATAAATGGATAATTATCACACCCAATTTAACTATAACGCTCTGATCATAGTCAGACCAACATTGCTACGACCCGTATTCGCACCGACAC
[1]
  relative integration efficiency (log2): -3.9 ± 0.37
[2]
  relative integration efficiency (log2): -2.78 ± 0.54

## ACATTTGTTCATACAACCCTAAAATGATAATTACACCCATAAATGGATAATTATCACCCCCAATTTAACTATAACGCTCTGATCATAGTCAGACCAACATTGCTACGACCCGTATTCGCACCGACAC
[1]
  relative integration efficiency (log2): -3.89 ± 0.38
[2]
  relative integration efficiency (log2): -2.74 ± 0.46

## ACATTTGTTCATACAACCCTAAAATGATAATTACACCCATAAATGGATCATTATCACACCCAATTTAACTATAACGCTCTGATCATAGTCAGACCAACATTGCTACGACCCGTATTCGCACCGACAC
[1]
  relative integration efficiency (log2): -5 ± 0.2
[2]
  relative integration efficiency (log2): -3.19 ± 0.38

## ACATTTGTTCATACAACCCTAAAATGATAATTACACCCATAAATGGATCATTATCACCCCCAATTTAACTATAACGCTCTGATCATAGTCAGACCAACATTGCTACGACCCGTATTCGCACCGACAC
[1]
  relative integration efficiency (log2): -4.59 ± 0.14
[2]
  relative integration efficiency (log2): -3.98 ± 0.81

## ACATTTGTTCATACAACCCTAAAATGATAATTACACCCATAAATTCATAATTATCACACCCAATTTAACTATAACGCTCTGATCATAGTCAGACCAACATTGCTACGACCCGTATTCGCACCGACAC
[1]
  relative integration efficiency (log2): -5.31 ± 0.95
[2]
  relative integration efficiency (log2): -2.644 ± 0.026

## ACATTTGTTCATACAACCCTAAAATGATAATTACACCCATAAATTCATCATTATCACACCCAATTTAACTATAACGCTCTGATCATAGTCAGACCAACATTGCTACGACCCGTATTCGCACCGACAC
[1]
  relative integration efficiency (log2): -5.84 ± 0.57
[2]
  relative integration efficiency (log2): -3.3 ± 0.36

## ACATTTGTTCATACAACCCTAAAATGATAATTACACCCATAAATTCATCATTATCACCCCCAATTTAACTATAACGCTCTGATCATAGTCAGACCAACATTGCTACGACCCGTATTCGCACCGACAC
[1]
  relative integration efficiency (log2): -5.29 ± 0.22
[2]
  relative integration efficiency (log2): -3.65 ± 0.85

## ACATTTGTTCATACAACCCTAAAATGATAATTACACCCATAAATTGATAATTATCACACCCAATTTAACTATAACGCTCTGATCATAGTCAGACCAACATTGCTACGACCCGTATTCGCACCGACAC
[1]
  relative integration efficiency (log2): -2.24 ± 0.22
[2]
  relative integration efficiency (log2): -1.03 ± 0.5

## ACATTTGTTCATACAACCCTAAAATGATAATTACACCCATAAATTGATAATTATCACCCCCAATTTAACTATAACGCTCTGATCATAGTCAGACCAACATTGCTACGACCCGTATTCGCACCGACAC
[1]
  relative integration efficiency (log2): -2.74 ± 0.42
[2]
  relative integration efficiency (log2): -0.953 ± 0.35

## ACATTTGTTCATACAACCCTAAAATGATAATTACACCCATAAATTGATCATTATCACACCCAATTTAACTATAACGCTCTGATCATAGTCAGACCAACATTGCTACGACCCGTATTCGCACCGACAC
[1]
  relative integration efficiency (log2): -3.41 ± 0.23
[2]
  relative integration efficiency (log2): -1.36 ± 0.72

## ACATTTGTTCATACAACCCTAAAATGATAATTACACCCATAAATTGATCATTATCACCCCCAATTTAACTATAACGCTCTGATCATAGTCAGACCAACATTGCTACGACCCGTATTCGCACCGACAC
[1]
  relative integration efficiency (log2): -2.63 ± 0.59
[2]
  relative integration efficiency (log2): -0.724 ± 0.35

## ACATTTGTTCATCCAACCATAAAATGATAATTACACCCATAAATGGATAATTATCACACCCAATTTAACTATAACGCTCTGATCATAGTCAGACCAACATTGCTACGACCCGTATTCGCACCGACAC
[1]
  relative integration efficiency (log2): -2.08 ± 0.37
[2]
  relative integration efficiency (log2): -0.431 ± 0.44

## ACATTTGTTCATCCAACCATAAAATGATAATTACACCCATAAATGGATCATTATCACACCCAATTTAACTATAACGCTCTGATCATAGTCAGACCAACATTGCTACGACCCGTATTCGCACCGACAC
[1]
  relative integration efficiency (log2): -2.36 ± 0.26
[2]
  relative integration efficiency (log2): -1.01 ± 0.52

## ACATTTGTTCATCCAACCATAAAATGATAATTACACCCATAAATTCATAATTATCACACCCAATTTAACTATAACGCTCTGATCATAGTCAGACCAACATTGCTACGACCCGTATTCGCACCGACAC
[1]
  relative integration efficiency (log2): -2.84 ± 0.39
[2]
  relative integration efficiency (log2): -1.1 ± 0.16

## ACATTTGTTCATCCAACCATAAAATGATAATTACACCCATAAATTCATCATTATCACACCCAATTTAACTATAACGCTCTGATCATAGTCAGACCAACATTGCTACGACCCGTATTCGCACCGACAC
[1]
  relative integration efficiency (log2): -2.92 ± 0.45
[2]
  relative integration efficiency (log2): -0.745 ± 0.19

## ACATTTGTTCATCCAACCATAAAATGATAATTACACCCATAAATTGATAATTATCACACCCAATTTAACTATAACGCTCTGATCATAGTCAGACCAACATTGCTACGACCCGTATTCGCACCGACAC
[1]
  relative integration efficiency (log2): -1.42 ± 0.29
[2]
  relative integration efficiency (log2): 0.451 ± 0.23

## ACATTTGTTCATCCAACCATAAAATGATAATTACACCCATAAATTGATCATTATCACACCCAATTTAACTATAACGCTCTGATCATAGTCAGACCAACATTGCTACGACCCGTATTCGCACCGACAC
[1]
  relative integration efficiency (log2): -2.44 ± 0.32
[2]
  relative integration efficiency (log2): 0.101 ± 0.12

## ACATTTGTTCTATCAACCATAAAATGATAATTACACCCATAAATTGATAATTATCACACCCATAAATTGATATTGCCTCTGATCATAGTCAGACCAACATTGCTACGACCCGTATTCGCACCGACAC
[1]
  relative integration efficiency (log2): -1.53 ± 0.17
[2]
  relative integration efficiency (log2): -4.42 ± 0.25

## ACATTTGTTCTTACAACCATAAAATGATAATTACACCCATAAATTGATAATTATCACACCCATAAATTGATATTGCCTCTGATCATAGTCAGACCAACATTGCTACGACCCGTATTCGCACCGACAC
[1]
  relative integration efficiency (log2): -0.825 ± 0.14
[2]
  relative integration efficiency (log2): -3.55 ± 0.75
